In patent US20240026407A1, “MODIFICATION OF SAPONINS” (GLAXOSMITHKLINE BIOLOGICALS SA, priority 2020, published 2024):

Tests used:
Type in all cases: biochemical, Quillaja saponaria
[1] = Experiment 5-2: screening of additional glucosidases for deglycosylation with QS-18 in crude bark extract (80%) at pH 6 and 35 deg C; conditions: CBE 80%, pH 6, 35 deg C, 18 hours; UV HPLC
Method in brief: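 Clarified glucosidase lysate (prepared at pH 6) was incubated with pH 6-adjusted crude bark extract at 35 deg C with shaking for 18 hours. Reactions were quenched with MeCN containing 2% AcOH and hexanophenone, then analysed by UV HPLC.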

[2] = Experiment 5-1: screening of additional glucosidases for deglycosylation with purified QS-18 (0.04 mg/ml) at pH 7.5 and 30 deg C; conditions: pH 7.5, 30 degrees C, 18 hours, LCMS/MS
Method: The 94 additional genes, together with positive control (DNA encoding SEQ ID No. 262) and negative control, were transformed, expressed, lysed and reacted in the same manner as described above for Experiment 4-1, except the reaction was incubated at 30 degrees C. for 18 hours.
Samples were analysed by LCMS/MS according to the procedure in Experiment 4-1.

[3] = Experiment 5-3: screening of additional glucosidases for deglycosylation with QS-18 in treated bark extract (80%) at pH 6 and 35 deg C; conditions: TBE 80% (QS-21 approx. 4 g/L), pH 6, 35 deg C; UV HPLC
Method: Experiment 5-1 was repeated, replacing CBE with Treated Bark Extract (TBE) at pH 6. TBE was prepared from CBE by PVPP treatment and concentration, to provide TBE with a QS-21 concentration of approximately 4 g/L. TBE was adjusted to pH 6 by dropwise addition of 2M NaOH with stirring.

Molecule	Experiment 5-2 % conv [1] [%]	Experiment 5-1 % conv [2] [%]	Experiment 5-3 % conv [3] [%]
840 (protein, listed as Hungatella hathewayi) MNKKIKEILNSLTLEEKASLCSGVGLWQTRPLEDKGIPEIWMADGSNGVRIMKPVNQERKQDTSDFLKVTDLTQNSPTITNQYEAVCYPSGASLASTWDTELIEEMGEALGDECRYFKVNLLLAPGINIKRSPLGGRGYEYYSEDPYLTGKVAESFIKGVQKTGTGTSIKHFAANNAETLRINMSSDVDERALREIYLAPFEIGVKNAKPWTVMSSYNKVNGVQMAENRELLTDILRDEWGFNGVVVSDWGGVKDRIKALEAGNDLDMPENQRSNQSVVDAVRRGILSEAVLDQSVERILELVFKAKEQERFTDDMDFESHRNLSRKVAEESVVLLKNEKGLLPITKEKYKKVAVIGAFAREPRYQGGGCTLVNPIRISRPYEEMEKLAGKNIELTYAKGYELKDETSDELIHEAEEAAREADIAVIFGGLWVAYDREGFDRKHLEIDSSHIRLIEAVSRVQKRVVVVLSNGDAVVMSPWLDHVGAVVEQFLVGETVGEALARVLFGEVNPSGKLPVTFPKRLEDTSAYPYFPGECSHHVYGEGIFVGYRYFDKKKIEPLFPFGYGISYTTFQYSAIRADRSQMKDTDTVTVSVDVTNTGCVKGKEIVQIYVSDEKSRLKRPEKELKAFGKVELEPGETKTLTFTLGYRDFAYYDPEASDWVVEEGIFHIHAAANAGDIRQSIPVEVTEAKKKFRRLYLDSQHTAVFEHPMAKKMYLDFLVETGVIAADRVEAMAPLLKGNYMGIYNVVTSLLGGNVTKEEMQAVLDRINEVCKDNRPAE	<0.5	3.5	<0.5
817 (protein, listed as Pseudonocardia sp.) MAHVDEELLGTLIATLDLERKVRLLTGADFWSTPAEPAIGLRRMVLSDGPSGVRGESFDEREPSLSLPSSSALGATWDPAAARRYGSALGAEARRQHADAVLGPTINLHRTPYGGRHFEALSEDPLLTAELAAAYVEGLQAHGVAATPKHYVANDAETERFSVDNRVGDRALRELYLAAFEPVVTRAGAWAVMSAYNAVNGTTMSENPLLAEPLTGEWGFDGLVMSDWGGARSTEASARAEQHLVMPGPVSAWGARLVEAVRDGRVGEDVIDGKVRRLLRLAARVGALDGVPPQVTEPPPAEDGAAVARELAAAGSVLVRNTRADGAAELPWDHAVPGSVAVLGHNAALARTQGGGSATVRPAAVVSPLDGLRAALGADRVRYRLGAQVAEGVQPFDPASITNPVTGGSGLRAVFRDVGGAALRTEDRLSSSLIWMGAEIPEGTDHVEIALRWDAPAGAHRLGAAAVGHVVLVAGGTTVLDADGVLTGDEGPGAAIFEAPSVTAGVTTDGPVDLVLRFRPSGQEAGMPLVAVTVGEETVVDDPDAEIAAAAALAAGTDVAVVVVGTNDRIESEGFDRSTLALPGRQDDLVRAVAAANPRTVVVVNSGAPVLLPWRDEVAAILLGWFGGEQFGEAVADVLLGAAEPGGRLPTTWPGTGRERSVLSGVPSDGVLRYDEGVHAGHRNWLRHGETPAYPFGHGLGYTTWTLDGMSVGRWSADGIDVTVTLTNIGDRPGRQVVQAYLSRDRSDVERPARWLAGWAVVDAAPGTTTVTVPVSRRAFRHRTGTGWATEPGTWTLHLGFSVTDTPLAAEVTTT	<0.5	3.5	<0.5
819 (protein, Propionibacterium australiense) MTTVHPDDYADRASELVAAMTLDEKASLTSGADFWNLKTVERLGLGAVMVTDGPHGLRKATNDAEIGIGQAVPATCFPTAAALGSTWDDELLEQVGAALGEEARAAGVAVVLGPGVNMKRSPLCGRNFEYFSEDPLVAGRAGAAMVRGVQSQGVGTSVKHFAANSQETDRMRIDARIGERALREIYLPAFERIVTQTRPWTVMCAYNKVNGTYASQHPWLLTTVLREDWGFGGLVVSDWGAVDQRVPGLAAGLDLEMPASGGVTDEQIARAVRTGELDEAVLDRAVQRIVALILAAQAVEPGTGFDTDAHHELARKAAAAGAVLLRNEPVDGSPVLPLDARDITGQAPLVVIGEFARTPRYQGAGSSQINPTRLDSALDALREQLGGAVRFEPGYRLAEATGMPGQELTDDELADRAVEAARGATVVLFAGLPAAVESEGYDRDDIELPNAQTTLIERVSAVAARTTVVLSNGSVVSVASWREKVDALLECWLGGQGGGSATADVLLGRSCPGGHLAESIPLALSDVPAQLNFPGSHSRVDHGEGVFVGYRGLDTMGREVAYPFGFGLTYTTFELTGVQATPVVTVADGTGLDETVAVVRGTLTNTGQRTGAQVVQLYLGRHEASRVARAPRELRGYEKITLAPGQSAPFEFALSRRDLSYWDEGTGCWQVEPGAYRAWVGFSSRDAAAVLPLQVTAPEPASPLGKDSTYAEWMAHPVGGPLLRTDARAFVDDMASSGAYELFAAMPLERLVRLPGSLLAPEDYLTLLDRAQAGQD	<0.5	3.2	<0.5
876 (protein, listed as Pyrenochaeta sp.) MQLSEMALTGVEVDATDVEYILKQMSLDEKIQMLAAKNVWETPEIERVGIPSLKVTDGPNGARGGSFFDGTTAACFPASVSLAATFSRELSRQIGTALGQEAITKGAYAVLGPTVCCHRSPLGGRNFEAFSEDPYLSGTLASEYVQGLQQERVAATVKHFLANEQDTRRFSINQTISERALREIYLKPFEMVVKEAKPWCFMSSYPKINGKHVDAQSLFLEDILRKEWSYDGLVMSDWGATSTVESVSYGLDLEMPGPPRFRTPEAVHQALLKGTVSESDIDARVLTTLKLLERVGKFADRRDTPKETAVDRPEHRELIRKAGSEGIVLLKNDRGILPIDVTKTKKVALLGPLAKYAAAHGGGSASLNCHYKVSPFDAFKDRLSEDVEIAHSKGAHIFRVYPDLEEGCLNARQRPGFLAEYFMTSRVTEEPFLVEQFPRGSFTTLMNTRATGCKTVRFTTTYSPVTPGAHYLSFSGLGPSKFYINDELVAHQTESTKDAMGFLLGVQEEIRTQFVFEVGKEYNIVVETHPSPTSNAELYLLDNQCSVHLGLISQEEMEQDVLAEAVSLAKDADLAIVFVGNTTQWETEGQDLESMSLPANGSQDDLIVRVAAANPNTIVVNTTGVPVELPWIDSVPAFLQAWYAGQETGNAILDVLLGTTCPSGKLPISWPKKYEHTGCFGNFGLDSFESRQVDYVEGVFVGYRWFDNLWGGEKEVRFPFGFGLSYTTFEITGTSIKGSLSNDAHHVLRVSIKVKNVGKCLGAEIVQVYLKPPVTEGLERPQKTLAGFEKIELRVGEEREVHIAIGKENAAFWDENLSKWRVSTGVYEVLVATSSHPRDCRAVLETVVEDEFIFKA	<0.5	3.1	<0.5
850 (protein, listed as Bifidobacterium scardovii) MSESTYPSVKDLTLEEKASLTSGGDVWHLQGVESKGIPGYMITDGPHGLRKSLASSAGETDLDASVPATCFPPAAGLSSSWNPELIRKVGEAMGEECIQEKVAVILGPGVNIKRNPLGGRCFEYWSEDPYLAGHEAIGIVEGVQSKGVGTSLKHFAANNQETDRLRISANIGPRALREIYLPAFEHIVKTAQPWTVMCSYNRINGVYSAQNRWLLTDVLRGEWGFEGIVMSDWGADHDRVASLNAGLNLEMPPSYTDDEIVHAARDGRIAPAQLDAMAQGMIDLVNRTRAAMSVDDYRFDVDAHDEVAHQAAVESIVMLKNDGAILPLDADAASGQKIAVIGEFARTPRYQGGGSSHITPTRMTSFLDALDERGIAAEFAPGFTLDLEPADPALEAQAVDAAKRADTVLMFLGLPEAAESEGFDRETLDIPAKQIALLDAVAAANDQVVVVLSNGSAVSVAPWAGRAKGILESWLLGQAGGPALADVIFGRTSPSGKLAQTIPMDINDDPSMVNWPGEEGHVDYGEGVFVGYRYYDTYGKAVGYPFGYGLSYATFEISKAAVARTGANAAVVTATVTNTSGVDGAETVQVYVAPGKADVARPRHELKGFVKVFLKAGESADVAIDLDERAFAYWSERYDDWHIESGEYAVEIGTSSRDIAATVTVALEGDGKTQPLTAWSTYGEWSSDPIGAKVMAAVAAAGEAGELPKLPDNAMMNMFLMAMPINSLPTLMSEGGKSITRFMLDEYARLTK	<0.5	95.3	<0.5
879 (protein, listed as Morchella conica) MTVSPLPKDLQKKVNDVLDSLTLLEQVSLLAGKDFWRTVEIPGKVPSIKVTDGPSGARGQFFSGGTKAAFFPSGVSLAATFDPELITHIGNALGQETKTKAAQVLLAPTACNHRSPLGGRNFESFSEDPYLSGKLAASYISGVQAEGVAVTMKHFVANEQETKRFSVNEIIDERALREIYLKPFEIAVREAGPWGIMSSYNKVNAHHADLHPFSMKQVLRAEWGWDGLVMSDWGGTNSTAESLIAGLDLEMPGPTRRRGELLLKAVQDTNSSPELLAAIKTGARHVLELIARTGRWGKFQEAEEQAVDKLEHRELIRKTGAHGIVLLKNEGATLPIKREQIKSVAWIGPNANETIAGGGGSANLNPHYLTNPLESFTAAVEENDIKVAYEIGCQTEKWVRVFPVEEGRARTAPSATEGAPGLKVDFFGGRECSGECVASNVMTTSNIFLMDGKPPVLGDQDYSVRITTYIRPEATGEHVVGVGSIGPTKIYVDDKLLIDHTHWIELGELFFTSGSEEVTQKIHLEAGKWYKLVAETTSKSPEQKLPDMGNDNLDFASAIGIRLGIDAVRDVQEYIDRAATLAKKSDVAVVVVGMNNEWESEGYDRHTMALPGKQNELIEAVVKANPNTIVVNQSGCPVTMPWLDRVPAVLQAWYQGQEAGNALVDVLLGKVNPSGRLPITFPKRLEDNPSFGNFGDGGEKNQIAYTEGIYVGYRHYNSRDIPVLFPFGFGLSYTSFELGAPTVDQAAFEIGKKITVQVPVKNTGAIKGIETVQVYLAPKKSAVDRPKRELKGFAKIELEAGESGVARIELDHYAPGLFCEERKCWRALEGAYVVEVGRNVQEIDGSVEVAVEREYEWVF	<0.5	90.1	<0.5
